Laboratory results as given in paper PMC11741385 (bioRxiv, 2025).

Target: the molecule itself
Experiment: cryo-EM structure

B1: Candida albicans Pra1 (recombinant, full-length excluding the signal peptide) (natural protein, UniProt P87020 16-299, looked up)
chain: APVTVTRFVDASPTGYDWRADWVKGFPIDSSCNATQYNQLSTGLQEAQLLAEHARDHTLRFGSKSPFFRKYFGNETASAEVVGHFDNVVGADKSSILFLCDDLDDKCKNDGWAGYWRGSNHSDQTIICDLSFVTRRYLTQLCSSGYTVSKSKTNIFWAGDLLHRFWHLKSIGQLVIEHYADTYEEVLELAQENSTYAVRNSNSLIYYALDVYAYDVTIPGEGCNGDGTSYKKSDFSSFEDSDSGSDSGASSTASSSHQHTDSNPSATTDANSHCHTHADGEVHC
modifications: N-linked glycosylation at Asn48, Asn89, Asn135 and Asn208; three intramolecular disulphide bonds
stoichiometry N: 6
